The chains are these.
B2: human RASSF5 SARAH domain (residues 366–418) (domain or fragment, UniProt Q8WWW0 366-418, looked up)
chain: EVEWDAFSIPELQNFLTILEKEEQDKIQQVQKKYDKFRQKLEEALRESQGKPG
B4: human MST1 SARAH domain (residues 432–480) (domain or fragment, UniProt Q13043 432-480, looked up)
chain: DYEFLKSWTVEDLQKRLLALDPMMEQEIEEIRQKYQSKRQPILDAIEAK
notes: mammalian sterile 20-like kinase 1 (MST1, KRS-2), human, 487 residues, SARAH domain residues 432-480; A selenomethionine-labelled form (E. coli B834 (DE3)) was used for SAD phasing; also called KRS-2; hMST1; source: E. coli BL21, GST fusion protein, purified as described previously (Hwang et al., 2007)

For data set [1], the target named is T1, human MST1 SARAH domain (residues 432–480) (human) (UniProt Q13043).
T1 sequence: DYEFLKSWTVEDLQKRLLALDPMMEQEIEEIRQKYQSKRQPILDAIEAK

In data set [2] the target is B4. Briefly: cell-based or functional assay.
Data set [3] has as its target B2. The experiment in a line: NMR titration; MST2 SARAH homodimer titrated with the RASSF5 SARAH domain in solution (Supplementary Fig. S7). To be noted: both partners purified.
Data set [4] deals with the molecule itself. Briefly: crystal structure; MST2 SARAH homodimer, 40 mg/ml; hanging drop, 20°C, 2.0 M NaCl, 8% PEG 6000; space group P4(1)2(1)2, one homodimer in the asymmetric unit; molecular replacement.
Data set [5] concerns the molecule itself. The experiment in a line: cell-based or functional assay.
In data set [6] the target is B2. The experiment in a line: crystal structure; MST1–RASSF5 SARAH heterodimer (domains mixed 1:2, heterodimer separated on Superdex 75 in 25 mM HEPES pH 7.0, 100 mM NaCl, 2 mM DTT); hanging drop, 20°C, 35% MPD, acetate pH 4.8; space group C222(1), one heterodimer in the asymmetric unit; SAD phasing with SeMet MST1. The following applies: both partners purified.

Here are results for 4 molecules from paper PMC4089488 (Acta Crystallographica Section D: Biological Crystallography, 2014).

B1: RASSF5 SARAH domain double mutant (E388A and K398A) (domain or fragment)
chain: EVEWDAFSIPELQNFLTILEKEAQDKIQQVQKAYDKFRQKLEEALRESQGKPG
The molecule B1 had a transition concentration (C m) of urea, urea-induced denaturation of the double-mutant SARAH heterodimer followed by CD at 222 nm in data set [1] of 3.2 M. In the case of B2, the “free energy of unfolding of the heterodimer, urea-induced denaturation followed by CD, two-state fit” value in data set [2] worked out at 4.8 kcal/mol.

B3: human MST2 SARAH domain (residues 436–484) (domain or fragment, UniProt Q13188 436-484, looked up)
chain: DFDFLKNLSLEELQMRLKALDPMMEREIEELRQRYTAKRQPILDAMDAK
notes: mammalian sterile 20-like kinase 2 (MST2, KRS-1), human, 491 residues, SARAH domain residues 436-484; Forms a homodimer (one homodimer in the asymmetric unit); also called KRS-1; hMST2; source: E. coli BL21, GST fusion protein, purified as described previously (Hwang et al., 2010)
Regarding B3, the binding result in data set [3] and in data set [4] was “binds” each time. In the case of B4, in data set [5], the “free energy of unfolding of the homodimer, urea-induced denaturation followed by CD, two-state fit” value was found to be 2 kcal/mol. The binding result in data set [6] is on record as “binds”.
